Data taken from patent US20250206828A1, “ANTI-ADENOSINE RECEPTOR (A2aR) ANTIBODIES AND THE USE THEREOF” (Adept Therapeutics Inc., priority 2022, published 2025).

Target: human A2aR (Homo sapiens, UniProt P29274)
Assay: Binding of humanized anti-A2aR antibodies in transfected Expi293F cell supernatant to human A2aR on HEK293 cells (FACS, MFI)
Settings: for binding to human A2aR on cell surface, mean fluorescence intensity (MFI): supernatant normalized to 1 μg/ml antibody, HEK293 cells stably overexpressing human A2aR, greater MFI = stronger binding, parental value average of triplicate; for MFI, binding to human A2aR on cell surface (3F6-9G5 derived): supernatant with 1 μg/ml antibody, HEK293 overexpressing human A2aR, heavy chain (row) x light chain
Protocol: Briefly, HEK293 cells that stably overexpress human A2aR (HEK-hA2aR OCL, BPS Bioscience, Cat. 79381) were collected from fresh culture. Cells were then resuspended in FACS buffer (1×DPBS/1% FBS) at 10^6/ml concentration. One hundred microliters (100 μl) of cells were aliquoted into each well of a 96 well plates. After centrifugation, cell pellets in each well were then resuspended with 100 μl normalized supernatant samples containing 1 μg/ml humanized anti-A2aR monoclonal antibody variants collected from transfected Expi293 cell culture. The supernatants were mixed with the cells and incubated on ice for 1 hours. After washing the mixtures of the supernatants containing expressed antibodies and the A2aR-expressing cells with FACS buffer, one hundred microliters (100 μl) of 1:400 diluted PE-conjugated anti-human Fc secondary antibody (Jackson Immuno Research, Cat. 109-116-098) was added to each well followed by an incubation for 30 minutes on ice. After washes with FACS buffer, stained cells were resuspended in 150 μl of 7-AAD (Biolegend, Cat. 420404) diluted 1:100 in 1×DPBS buffer and incubate for 5 minutes in the dark at room temperature before FACS analysis. The mean fluorescence intensity (MFI) was obtained using Guava 11HT or 5HT (Luminex). Data was analyzed using Flowjo software.
As shown in Tables 22-24, exemplary humanized anti-A2aR antibodies bind to A2aR expressed on a cell surface. A greater MFI value means stronger binding of the exemplary antibody to A2aR expressed on a cell surface.

human A2aR, sequence (P29274 whole entry): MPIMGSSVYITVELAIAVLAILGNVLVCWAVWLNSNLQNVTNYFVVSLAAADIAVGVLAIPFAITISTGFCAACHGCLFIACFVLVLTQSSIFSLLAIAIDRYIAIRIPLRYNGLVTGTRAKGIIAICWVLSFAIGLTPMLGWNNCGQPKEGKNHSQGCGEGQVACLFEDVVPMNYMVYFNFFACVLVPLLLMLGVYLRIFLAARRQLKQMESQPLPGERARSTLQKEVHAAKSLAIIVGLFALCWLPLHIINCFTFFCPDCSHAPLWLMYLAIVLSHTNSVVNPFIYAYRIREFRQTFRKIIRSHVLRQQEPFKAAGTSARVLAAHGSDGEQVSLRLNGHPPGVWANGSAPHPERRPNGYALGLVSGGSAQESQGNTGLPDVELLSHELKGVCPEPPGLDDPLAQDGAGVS

| Molecule | binding to human A2aR on cell surface, mean fluorescence intensity (MFI) | MFI, binding to human A2aR on cell surface (3F6-9G5 derived) |
| --- | --- | --- |
| Hu1B5-H3/Hu1B5-L1: humanized anti-A2aR IgG1 FES antibody; HCVR SEQ ID NO:54, LCVR SEQ ID NO:71 (antibody, V domains shown, IgG1 FES constant regions) VH: EVQLVQSGAEVKKPGASVKVSCKTSGFTFTRFWMNWVRQAPGQGLEWIGRIDPYDSETQYNHKFWDRATLTVDTSSSTVYMELSSLRSEDTAVYYCGRSLYGKGDYWGQGTTVTVSS VL: DVVMTQSPLSLPVTLGQPASISCRSSQSIVHSNGNTYLEWFQQRPGQSPRRLIYKVSNRFSGVPDRFSGSGSGTDFTLKISRVEAEDVGVYYCFQGSHVPLTFGGGTKVEIK | 152 | – |
| Hu3F6-H2/Hu3F6-L2: humanized anti-A2aR IgG1 FES antibody; HCVR SEQ ID NO:59, LCVR SEQ ID NO:77 (antibody, V domains shown, IgG1 FES constant regions) VH: EVQLVQSGAEVKKPGASVKVSCKTSGFAFTSYWMNWVRQAPGQGLEWMGRIDPSDSEAHYHHKFWGRVTMTVDTSTSTVYMELSSLRSEDTAVYYCLRSLYGKGDYWGHGTTVTVSS VL: DVVMTQSPLSLPVTLGQPASISCRSSQSLVHRNGNTYLEWYQQRPGQSPRRLIYKVSNRFSGVPDRFSGSGSGTDFTLKISRVEAEDVGVYYCYQGSHVPLTFGGGTKVEIK | – | 146 |
| Hu3F6-H4/Hu3F6-L1: humanized anti-A2aR IgG1 FES antibody; HCVR SEQ ID NO:61, LCVR SEQ ID NO:76 (antibody, V domains shown) VH: EVQLVQSGAEVKKPGASVKVSCKTSGFAFTSYWMNWVRQAPGQGLEWIGRIDPSDSEAHYHHKFWGRATLTVDKSSSTVYMELSSLRSEDTAVYYCLRSLYGKGDYWGHGTTVTVSS VL: DVVMTQSPLSLPVTLGQPASISCRSSQSLVHRNGNTYLEWFQQRPGQSPRRLIYKVSNRFSGVPDRFSGSGSGTDFTLKISRVEAEDVGVYYCYQGSHVPLTFGGGTKVEIK | – | 21 |
| Hu1B5-H6/Hu1B5-L1: humanized anti-A2aR IgG1 FES antibody; HCVR SEQ ID NO:57, LCVR SEQ ID NO:71 (antibody, V domains shown, IgG1 FES constant regions) VH: EVQLVQSGAEVKKPGESLRISCKTSGFTFTRFWMNWVRQMPGKGLEWIGRIDPYDSETQYNHKFWDHATLSVDKSSSTVYLQWSSLKASDTAMYYCGRSLYGKGDYWGQGTTVTVSS VL: DVVMTQSPLSLPVTLGQPASISCRSSQSIVHSNGNTYLEWFQQRPGQSPRRLIYKVSNRFSGVPDRFSGSGSGTDFTLKISRVEAEDVGVYYCFQGSHVPLTFGGGTKVEIK | 178 | – |
| Hu3F6-H5/Hu3F6-L2: humanized anti-A2aR IgG1 FES antibody; HCVR SEQ ID NO:62, LCVR SEQ ID NO:77 (antibody, V domains shown) VH: EVQLVQSGAEVKKPGASVKVSCKTSGFAFTSYWMNWVRQAPGQGLEWIGRIDPSDSEAHYAHKFWGRATLTVDKSSSTVYMELSSLRSEDTAVYYCLRSLYGKGDYWGHGTTVTVSS VL: DVVMTQSPLSLPVTLGQPASISCRSSQSLVHRNGNTYLEWYQQRPGQSPRRLIYKVSNRFSGVPDRFSGSGSGTDFTLKISRVEAEDVGVYYCYQGSHVPLTFGGGTKVEIK | – | 191 |
| Hu3F6-H5/Hu3F6-L1: humanized anti-A2aR IgG1 FES antibody; HCVR SEQ ID NO:62, LCVR SEQ ID NO:76 (antibody, V domains shown) VH: EVQLVQSGAEVKKPGASVKVSCKTSGFAFTSYWMNWVRQAPGQGLEWIGRIDPSDSEAHYAHKFWGRATLTVDKSSSTVYMELSSLRSEDTAVYYCLRSLYGKGDYWGHGTTVTVSS VL: DVVMTQSPLSLPVTLGQPASISCRSSQSLVHRNGNTYLEWFQQRPGQSPRRLIYKVSNRFSGVPDRFSGSGSGTDFTLKISRVEAEDVGVYYCYQGSHVPLTFGGGTKVEIK | – | 25 |
| Hu1B5-H2.1/Hu1B5-L1: humanized anti-A2aR IgG1 FES antibody; HCVR SEQ ID NO:53, LCVR SEQ ID NO:71 (antibody, V domains shown) VH: EVQLVQSGAEVKKPGASVKVSCKTSGFTFTRFWMNWVRQAPGQGLEWIGRIDPYDSETQYNHKFWDRVTMTVDTSTSTVYMELSSLRSEDTAVYYCGRSLYGKGDYWGQGTTVTVSS VL: DVVMTQSPLSLPVTLGQPASISCRSSQSIVHSNGNTYLEWFQQRPGQSPRRLIYKVSNRFSGVPDRFSGSGSGTDFTLKISRVEAEDVGVYYCFQGSHVPLTFGGGTKVEIK | 145 | – |
| Hu1B5-H5/Hu1B5-L1: humanized anti-A2aR IgG1 FES antibody; HCVR SEQ ID NO:56, LCVR SEQ ID NO:71 (antibody, V domains shown, IgG1 FES constant regions) VH: EVQLVQSGAEVKKPGASVKVSCKTSGFTFTRFWMNWVRQAPGQGLEWIGRIDPYDSETQYAHKFWDRATLTVDKSSSTVYMELSSLRSEDTAVYYCGRSLYGKGDYWGQGTTVTVSS VL: DVVMTQSPLSLPVTLGQPASISCRSSQSIVHSNGNTYLEWFQQRPGQSPRRLIYKVSNRFSGVPDRFSGSGSGTDFTLKISRVEAEDVGVYYCFQGSHVPLTFGGGTKVEIK | 82 | – |
| Hu1B5-H4/Hu1B5-L1: humanized anti-A2aR IgG1 FES antibody; HCVR SEQ ID NO:55, LCVR SEQ ID NO:71 (antibody, V domains shown, IgG1 FES constant regions) VH: EVQLVQSGAEVKKPGASVKVSCKTSGFTFTRFWMNWVRQAPGQGLEWIGRIDPYDSETQYNHKFWDRATLTVDKSSSTVYMELSSLRSEDTAVYYCGRSLYGKGDYWGQGTTVTVSS VL: DVVMTQSPLSLPVTLGQPASISCRSSQSIVHSNGNTYLEWFQQRPGQSPRRLIYKVSNRFSGVPDRFSGSGSGTDFTLKISRVEAEDVGVYYCFQGSHVPLTFGGGTKVEIK | 182 | – |
| Hu1B5-H1/Hu1B5-L2: humanized anti-A2aR IgG1 FES antibody; HCVR SEQ ID NO:51, LCVR SEQ ID NO:72 (antibody, V domains shown) VH: QVQLVQSGAEVKKPGASVKVSCKASGFTFTRFWMNWVRQAPGQGLEWMGRIDPYDSETQYNHKFWDRVTMTRDTSTSTVYMELSSLRSEDTAVYYCGRSLYGKGDYWGQGTTVTVSS VL: DVVMTQSPLSLPVTLGQPASISCRSSQSIVHSNGNTYLEWYQQRPGQSPRRLIYKVSNRFSGVPDRFSGSGSGTDFTLKISRVEAEDVGVYYCFQGSHVPLTFGGGTKVEIK | 62 | – |
| Hu1B5-H2/Hu1B5-L1: humanized anti-A2aR IgG1 FES antibody; HCVR SEQ ID NO:52, LCVR SEQ ID NO:71 (antibody, V domains shown, IgG1 FES constant regions) VH: EVQLVQSGAEVKKPGASVKVSCKTSGFTFTRFWMNWVRQAPGQGLEWMGRIDPYDSETQYNHKFWDRVTMTVDTSTSTVYMELSSLRSEDTAVYYCGRSLYGKGDYWGQGTTVTVSS VL: DVVMTQSPLSLPVTLGQPASISCRSSQSIVHSNGNTYLEWFQQRPGQSPRRLIYKVSNRFSGVPDRFSGSGSGTDFTLKISRVEAEDVGVYYCFQGSHVPLTFGGGTKVEIK | 165 | – |
